Substitutions are numbered along the chain they refer to. Names and notes keep the numbering of the source. Values joined by “and” are separate entries in the source; they are usually repeats but may differ in a detail not shown here. Equal values may be shown once. Read-outs that look alike come from different tables or passages of the source. One block for each binder: values may come before it.
Key:
Experiment in all cases: SPR
FcgRIIIa V [1] = target: T1, FcgRIIIa V (human, UniProt P08637)
FcgRIa [2] = target: T2, FcgRIa (human, UniProt P12314)
T2 chain: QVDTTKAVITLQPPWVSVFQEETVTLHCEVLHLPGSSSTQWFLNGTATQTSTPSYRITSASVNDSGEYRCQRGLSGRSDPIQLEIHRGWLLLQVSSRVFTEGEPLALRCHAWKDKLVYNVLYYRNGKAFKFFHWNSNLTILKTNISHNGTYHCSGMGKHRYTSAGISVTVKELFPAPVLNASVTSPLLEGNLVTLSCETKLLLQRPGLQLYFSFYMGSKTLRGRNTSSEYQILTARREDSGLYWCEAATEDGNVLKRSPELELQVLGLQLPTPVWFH

FcgRIIa R [3] = target: T3, FcgRIIa R (human, UniProt P12318)
T3 chain: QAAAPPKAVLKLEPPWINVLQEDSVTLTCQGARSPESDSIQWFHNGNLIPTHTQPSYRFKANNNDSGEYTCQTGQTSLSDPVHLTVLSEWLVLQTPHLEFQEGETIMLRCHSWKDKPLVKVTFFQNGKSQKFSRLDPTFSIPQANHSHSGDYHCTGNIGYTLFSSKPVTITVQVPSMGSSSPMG

FcgRIIa R [4] = target: T3, FcgRIIa R
FcgRIIIa F [5] = target: T4, FcgRIIIa F (human, UniProt P08637)
FcgRIa [6] = target: T2, FcgRIa
FcgRIIb [7] = target: T5, FcgRIIb (human, UniProt P31994)
T5 chain: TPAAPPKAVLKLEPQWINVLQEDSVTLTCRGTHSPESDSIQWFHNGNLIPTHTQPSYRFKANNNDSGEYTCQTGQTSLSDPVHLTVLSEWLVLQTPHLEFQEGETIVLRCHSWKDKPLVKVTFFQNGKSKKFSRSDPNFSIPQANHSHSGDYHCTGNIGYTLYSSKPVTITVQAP

FcgRIIa H [8] = target: T6, FcgRIIa H (human, UniProt P12318)
T6 chain: T3 chain with R134H

FcgRIIa R [9] = target: T3, FcgRIIa R
FcgRIIb [10] = target: T5, FcgRIIb
FcgRIIa H [11] = target: T6, FcgRIIa H
FcgRIa [12] = target: T2, FcgRIa
FcgRIIIa V [13] = target: T1, FcgRIIIa V; remark: listed apart in the source
FcgRIIIa F [14] = target: T4, FcgRIIIa F; remark: listed apart in the source
FcgRIIIa F [15] = target: T4, FcgRIIIa F; remark: listed apart in the source
FcgRIIb [16] = target: T5, FcgRIIb
FcgRIIa H [17] = target: T6, FcgRIIa H
FcgRIIIa V [18] = target: T1, FcgRIIIa V; remark: listed apart in the source
FcgRIIb [19] = target: T5, FcgRIIb
FcgRIa [20] = target: T2, FcgRIa
FcgRIIa H [21] = target: T6, FcgRIIa H
FcgRIIIa V [22] = target: T1, FcgRIIIa V; remark: listed apart in the source
FcgRIIa R [23] = target: T3, FcgRIIa R
FcgRIIIa F [24] = target: T4, FcgRIIIa F; remark: listed apart in the source
FcgRIIb [25] = target: T5, FcgRIIb
FcgRIIIa F [26] = target: T4, FcgRIIIa F; remark: listed apart in the source
FcgRIIIa V [27] = target: T1, FcgRIIIa V; remark: listed apart in the source
FcgRIa [28] = target: T2, FcgRIa
FcgRIIa H [29] = target: T6, FcgRIIa H
FcgRIIa R [30] = target: T3, FcgRIIa R
FcgRIIb [31] = target: T5, FcgRIIb
FcgRIIa H [32] = target: T6, FcgRIIa H
FcgRIa [33] = target: T2, FcgRIa
FcgRIIIa F [34] = target: T4, FcgRIIIa F; remark: listed apart in the source
FcgRIIIa V [35] = target: T1, FcgRIIIa V; remark: listed apart in the source
FcgRIIa R [36] = target: T3, FcgRIIa R

T1 sequence (P08637 17-208 F176V): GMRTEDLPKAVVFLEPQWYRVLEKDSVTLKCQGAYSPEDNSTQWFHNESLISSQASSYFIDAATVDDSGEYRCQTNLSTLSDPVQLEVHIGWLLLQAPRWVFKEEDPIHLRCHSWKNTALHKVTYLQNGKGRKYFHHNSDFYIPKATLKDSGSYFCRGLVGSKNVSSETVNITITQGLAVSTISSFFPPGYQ
T4 sequence (P08637 17-208): as the sequence (P08637 17-208 F176V) above, with V160F counted along it

Kd (FcgRIIIa V [1]): 0.33 nM | Kd (FcgRIa [2]): 0.16 nM | Kd (FcgRIIa R [3]): 23 nM | Kd (FcgRIIa R [4]): 17 nM | Kd (FcgRIIIa F [5]): 2.4 nM | Kd (FcgRIa [6]): 0.11 nM | Kd (FcgRIIb [7]): 150 nM | Kd (FcgRIIa H [8]): 44 nM | Kd (FcgRIIa R [9]): 20 nM | Kd (FcgRIIb [10]): 150 nM | Kd (FcgRIIa H [11]): 41 nM | Kd (FcgRIa [12]): 0.37 nM | Kd (FcgRIIIa V [13]): 0.66 nM | Kd (FcgRIIIa F [14]): 2.4 nM | Kd (FcgRIIIa F [15]): 2.2 nM | Kd (FcgRIIb [16]): 150 nM | Kd (FcgRIIa H [17]): 59 nM | Kd (FcgRIIIa V [18]): 0.36 nM
B1: H240-Kn120/H240-Hl068/L73-k0 (antibody)
chain 1: QDQLVQSGAEVKKPGASVKVSCKASGFNIKDTYIQWVRQAPGQGLEWMGRIDPLRKQTKYREKFEGRVTITADTSTNTAYMELSSLRSEDTAVYYCVRSGREFDYWGQGTLVTVSSASTKGPSVFPLAPSSKSTSGGTAALGCLVKDYFPEPVTVSWNSGALTSGVHTFPAVLQSSGLYSLSSVVTVPSSSLGTQTYICNVNHKPSNTKVDKKVEPKSCDKTHTCPPCPAPEYYWGPMVFLFPPKPKDTLMISRTPEVTCVVVDVSDEDPEVKFNWYVDGVEVHNAKTKPREEQYNATYRVVSVLTVLHQDWLNGKEYKCKVSNKDLPAPIEKTISKAKGQPREPQVCTLPPSRDELTKNQVSLWCLVKGFYPSDIAVEWESNGQPENNYKTTPPVLDSDGSFFLYSKLTVDKSRWQQGNVFSCSVMHEALHNHYTQKSLSLSP
chain 2: QDQLVQSGAEVKKPGASVKVSCKASGFNIKDTYIQWVRQAPGQGLEWMGRIDPLRKQTKYREKFEGRVTITADTSTNTAYMELSSLRSEDTAVYYCVRSGREFDYWGQGTLVTVSSASTKGPSVFPLAPSSKSTSGGTAALGCLVKDYFPEPVTVSWNSGALTSGVHTFPAVLQSSGLYSLSSVVTVPSSSLGTQTYICNVNHKPSNTKVDKKVEPKSCDKTHTCPPCPAPELLGGPSVFLFPPKPKDTLMISRTPEVTCVVVDVSHEEPEVKFNWYVDGVEVHNAKTKPREEQYNSTYRVVSVLTVLHQDWLNGKEYKCKVSNDALPKPIEETISKAKGQPREPQVYTLPPSRCELTKNQVSLSCAVKGFYPSDIAVEWESNGQPENNYKTTPPVLDSDGSFFLVSKLTVDKSRWQQGNVFSCSVMHEALHNHYTQKSLSLSP
chain 3: DIQMTQSPSSLSASVGDRVTITCRASQDIHKYIAWYQQKPGQAPRLLIQYTSTLQPGVPSRFSGSGSGTDYTFTISSLQPEDIATYYCLQYEQLRTFGGGTKVEIKRTVAAPSVFIFPPSDEQLKSGTASVVCLLNNFYPREAKVQWKVDNALQSGNSQESVTEQDSKDSTYSLSSTLTLSKADYEKHKVYACEVTHQGLSSPVTKSFNRGEC

Kd (FcgRIIa R [4]): 29 nM | Kd (FcgRIIIa F [5]): 21 nM | Kd (FcgRIa [12]): 0.098 nM | Kd (FcgRIIIa V [13]): 6.8 nM | Kd (FcgRIIb [16]): 380 nM | Kd (FcgRIIa H [17]): 46 nM
B2: H240-Kn037/H240-Hl036/L73-k0 (antibody)
chain 1: B1 chain 1 with Y233L, Y234L, W235A, M238D, D267H, A297S, D326A, I331E
chain 2: B1 chain 2 with G235A, S238D, E269D, D325K, K329A, I331E, E333K
chain 3: B1 chain 3

Kd (FcgRIIb [19]): 4300 nM | Kd (FcgRIa [20]): 0.61 nM | Kd (FcgRIIa H [21]): 910 nM | Kd (FcgRIIIa V [22]): 330 nM | Kd (FcgRIIa R [23]): 940 nM | Kd (FcgRIIIa F [24]): 1600 nM
B3: H240-A5E/H240-B3E/L73-k0 (antibody)
chain 1: not shown
chain 2: not shown
chain 3: B1 chain 3

Kd (FcgRIIb [25]): 1300 nM and 1400 nM and 1500 nM | Kd (FcgRIIb [19]): 2900 nM | Kd (FcgRIa [20]): 0.24 nM | Kd (FcgRIIa H [21]): 130 nM | Kd (FcgRIIIa F [26]): 3.7 nM and 2.9 nM | Kd (FcgRIIIa V [27]): 0.99 nM and 1.2 nM | Kd (FcgRIIIa V [22]): 0.98 nM | Kd (FcgRIa [28]): 0.11 nM and 0.12 nM | Kd (FcgRIIa H [29]): 79 nM and 72 nM and 69 nM | Kd (FcgRIIa R [23]): 460 nM | Kd (FcgRIIa R [30]): 240 nM and 280 nM | Kd (FcgRIIIa F [24]): 3.7 nM
B4: H240-AK072/H240-BH076/L73-k0 (antibody)
chain 1: B1 chain 1 with M238S, D269E, D326A, C348Y, D355K, L357M, W365T, H434R
chain 2: B1 chain 2 with K329M, C355E, L357M, S365T, A367L, V406Y, K438E
chain 3: B1 chain 3

Kd (FcgRIIb [31]): 200 nM | Kd (FcgRIIa H [32]): 39 nM | Kd (FcgRIa [33]): 0.13 nM | Kd (FcgRIIIa F [34]): 2.1 nM | Kd (FcgRIIIa V [35]): 0.77 nM | Kd (FcgRIIa R [36]): 16 nM
B5: H240-Kn229/H240-Hl068/L73-k0 (antibody)
chain 1: B1 chain 1 with M238I
chain 2: B1 chain 2
chain 3: B1 chain 3

Kd (FcgRIIb [31]): 5200 nM | Kd (FcgRIIa H [32]): 170 nM | Kd (FcgRIa [33]): 0.036 nM | Kd (FcgRIIIa F [34]): 1.1 nM | Kd (FcgRIIIa V [35]): 0.19 nM | Kd (FcgRIIa R [36]): 490 nM
B6: H240-Kn225/H240-Hl076/L73-k0 (antibody)
chain 1: B1 chain 1 with Y234Q, M238I, D269E, D326A
chain 2: B1 chain 2 with K329M
chain 3: B1 chain 3

Reference: patent US10766960 (dated 2020)
